Experimental data from patent US20120213763A1 (COUNCIL OF SCIENTIFIC AND INDUSTRIAL RESEARCH, published 2012).
Several values for one entry are separate records, joined by “and”; a condition that tells them apart may be missing. Equal entries are not always repeated.

Legend:
[1] = biological target: T1, PEGylated SK D102C (SEQ ID NO 32)
T1 chain: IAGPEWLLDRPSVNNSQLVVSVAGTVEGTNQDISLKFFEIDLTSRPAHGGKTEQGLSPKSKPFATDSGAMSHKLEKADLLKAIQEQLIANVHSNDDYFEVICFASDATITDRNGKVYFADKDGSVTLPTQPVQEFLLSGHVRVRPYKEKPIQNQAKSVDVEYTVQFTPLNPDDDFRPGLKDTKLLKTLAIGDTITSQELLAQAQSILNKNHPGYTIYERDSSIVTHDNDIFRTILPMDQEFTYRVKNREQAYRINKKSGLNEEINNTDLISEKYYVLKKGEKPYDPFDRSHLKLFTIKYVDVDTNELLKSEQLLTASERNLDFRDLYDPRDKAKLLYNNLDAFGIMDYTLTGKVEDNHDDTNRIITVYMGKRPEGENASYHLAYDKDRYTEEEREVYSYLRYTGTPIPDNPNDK

[2] = biological target: PEG Variants of SEQ ID NO 23 (PEGylated Cysteine variants of fibrin domain fusion form of SK)
[3] = biological target: T2, PEGylated SK L179C (SEQ ID NO 41)
T2 chain: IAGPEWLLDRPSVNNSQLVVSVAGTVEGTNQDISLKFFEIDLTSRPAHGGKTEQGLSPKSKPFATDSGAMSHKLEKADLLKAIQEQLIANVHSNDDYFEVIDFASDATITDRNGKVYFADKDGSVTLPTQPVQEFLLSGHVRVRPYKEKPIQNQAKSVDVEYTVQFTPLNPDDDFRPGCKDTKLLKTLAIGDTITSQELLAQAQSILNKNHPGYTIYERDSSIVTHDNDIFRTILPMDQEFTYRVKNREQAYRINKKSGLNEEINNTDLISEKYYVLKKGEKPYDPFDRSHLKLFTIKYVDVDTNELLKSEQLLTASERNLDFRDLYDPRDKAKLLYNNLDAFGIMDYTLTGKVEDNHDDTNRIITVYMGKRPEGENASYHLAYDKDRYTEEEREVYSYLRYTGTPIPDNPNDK

[4] = biological target: T3, PEGylated SK N-Cys (SEQ ID NO 489), Cys at N - 1 position in SK
T3 chain: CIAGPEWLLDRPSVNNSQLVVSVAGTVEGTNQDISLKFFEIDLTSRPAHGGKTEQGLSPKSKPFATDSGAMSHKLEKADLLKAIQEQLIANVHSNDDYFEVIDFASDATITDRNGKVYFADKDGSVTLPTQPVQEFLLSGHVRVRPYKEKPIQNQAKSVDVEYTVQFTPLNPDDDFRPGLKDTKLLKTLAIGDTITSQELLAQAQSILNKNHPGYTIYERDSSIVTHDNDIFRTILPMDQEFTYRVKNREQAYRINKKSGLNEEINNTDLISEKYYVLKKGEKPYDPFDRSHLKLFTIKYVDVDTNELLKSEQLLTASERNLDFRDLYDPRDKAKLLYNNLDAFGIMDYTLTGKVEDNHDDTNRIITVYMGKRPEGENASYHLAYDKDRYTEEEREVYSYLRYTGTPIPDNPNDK

[5] = biological target: T4, native streptokinase nSK (1-414) ATCC 12449 (SEQ ID NO 1)
T4 chain: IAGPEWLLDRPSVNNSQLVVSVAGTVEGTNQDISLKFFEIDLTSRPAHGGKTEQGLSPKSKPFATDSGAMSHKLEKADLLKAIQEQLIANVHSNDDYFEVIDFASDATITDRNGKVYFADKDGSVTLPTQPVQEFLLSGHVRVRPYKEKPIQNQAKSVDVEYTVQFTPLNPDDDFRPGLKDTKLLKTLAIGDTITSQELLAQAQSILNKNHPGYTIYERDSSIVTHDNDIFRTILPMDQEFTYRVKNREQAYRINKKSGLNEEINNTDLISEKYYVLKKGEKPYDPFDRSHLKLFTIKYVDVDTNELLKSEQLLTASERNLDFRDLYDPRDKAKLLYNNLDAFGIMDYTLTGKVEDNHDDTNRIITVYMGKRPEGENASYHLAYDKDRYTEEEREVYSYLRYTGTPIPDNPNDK

[6] = biological target: T5, PEGylated SK K121C (SEQ ID NO 35)
T5 chain: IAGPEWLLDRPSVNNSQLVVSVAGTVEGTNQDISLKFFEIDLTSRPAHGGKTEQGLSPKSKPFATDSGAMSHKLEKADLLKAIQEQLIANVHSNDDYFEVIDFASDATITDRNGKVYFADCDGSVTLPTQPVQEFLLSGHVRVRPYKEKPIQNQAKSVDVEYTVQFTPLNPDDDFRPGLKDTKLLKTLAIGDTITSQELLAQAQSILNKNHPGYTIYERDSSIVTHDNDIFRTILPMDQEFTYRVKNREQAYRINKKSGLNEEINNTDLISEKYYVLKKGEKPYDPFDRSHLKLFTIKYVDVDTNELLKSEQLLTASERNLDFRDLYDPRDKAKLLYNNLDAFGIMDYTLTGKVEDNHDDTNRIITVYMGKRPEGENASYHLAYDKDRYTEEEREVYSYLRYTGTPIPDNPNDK

[7] = biological target: T6, PEGylated SK Lys 257 Cys (SEQ ID NO 48)
T6 chain: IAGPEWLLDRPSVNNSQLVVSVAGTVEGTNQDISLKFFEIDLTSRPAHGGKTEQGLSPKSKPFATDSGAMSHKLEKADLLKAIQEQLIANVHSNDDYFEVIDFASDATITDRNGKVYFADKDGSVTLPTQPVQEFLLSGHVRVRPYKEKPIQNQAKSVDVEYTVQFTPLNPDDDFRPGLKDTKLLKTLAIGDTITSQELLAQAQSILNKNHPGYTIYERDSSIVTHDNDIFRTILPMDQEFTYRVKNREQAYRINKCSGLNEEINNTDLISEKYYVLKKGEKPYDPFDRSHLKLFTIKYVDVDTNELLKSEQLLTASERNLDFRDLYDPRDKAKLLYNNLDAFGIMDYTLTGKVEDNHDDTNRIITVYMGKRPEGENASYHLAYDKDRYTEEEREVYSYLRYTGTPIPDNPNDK

B1: human plasminogen (HPG) (protein)
chain: KVYLSECKTGNGKNYRGTMSKTKNGITCQKWSSTSPHRPRFSPATHPSEGLEENYCRNPDNDPQGPWCYTTDPEKRYDYCDILECEEECMHCSGENYDGKISKTMSGLECQAWDSQSPHAHGYIPSKFPNKNLKKNYCRNPDRELRPWCFTTDPNKRWELCDIPRCTTPPPSSGPTYQCLKGTGENYRGNVAVTVSGHTCQHWSAQTPHTHNRTPENFPCKNLDENYCRNPDGKRAPWCHTTNSQVRWEYCKIPSCDSSPVSTEQLAPTAPPELTPVVQDCYHGDGQSYRGTSSTTTTGKKCQSWSSMTPHRHQKTPENYPNAGLTMNYCRNPDADKGPWCFTTDPSVRWEYCNLKKCSGTEASVVAPPPVVLLPDVETPSEEDCMFGNGKGYRGKRATTVTGTPCQDWAAQEPHRHSIFTPETNPRAGLEKNYCRNPDGDVGGPWCYTTNPRKLYDYCDVPQCAAPSFDCGKPQVEPKKCPGRVVGGCVAHPHSWPWQVSLRTRFGMHFCGGTLISPEWVLTAAHCLEKSPRPSSYKVILGAHQEVNLEPHVQEIEVSRLFLEPTRKDIALLKLSSPAVITDKVIPACLPSPNYVVADRTECFITGWGETQGTFGAGLLKEAQLPVIENKVCNRYEFLNGRVQSTELCAGHLAGGTDSCQGDSGGPLVCFEKDKYILQGVTSWGLGCARPNKPGVYVRVSRFVTWIEGVMRNN
Q: With B1 as the protein, how does the Km [1] read?
A: 0.5 µM

Q: And the Km [2]?
A: 0.24 µM and 0.63 µM

Q: What about the Km [3] of the same protein?
A: 0.5 µM

Q: And the Km [4]?
A: 0.4 µM

Q: What about the Km [5] of the same protein?
A: 0.4 µM and 0.45 µM

Q: And the Km [6]?
A: 0.4 µM

Q: And the Km [7]?
A: 0.4 µM
